Source: patent US20240084027A1 (BEIJING MABWORKS, published 2024)
Like-named read-outs stand apart in the source and are kept apart here.

B1: MBS307-3 (bispecific antibody, human IgG1, kappa, L234A L235A)
heavy: QVQLQESGPGLVKPSDTLSLTCAVSGYSITTNYYWNWIRQPPGKGLEWMGYIKYDGSNNYNPSLKNRITISVDTSKNQFSLKLSSVTAVDTAVYYCARLDYWGQGTLVTVSSASTKGPSVFPLAPSSKSTSGGTAALGCLVKDYFPEPVTVSWNSGALTSGVHTFPAVLQSSGLYSLSSVVTVPSSSLGTQTYICNVNHKPSNTKVDKKVEPKSCDKTHTCPPCPAPEAAGGPSVFLFPPKPKDTLMISRTPEVTCVVVDVSHEDPEVKFNWYVDGVEVHNAKTKPREEQYNSTYRVVSVLTVLHQDWLNGKEYKCKVSNKALGAPIEKTISKAKGQPREPQVYTLPPSREEMTKNQVSLTCLVKGFYPSDIAVEWESNGQPENNYKTTPPVLDSDGSFFLYSKLTVDKSRWQQGNVFSCSVMHEALHNHYTQKSLSLSPGSGGGGSGGGGSQVQLQESGPGLVKPSQTLSLTCTVSGGSITSDYWNWIRQHPGNKLEYMGYISYTGSTYYNPSLKSRISITRDTSKNQFSLKLSSVTTADTAVYYCARYRDWDVRAMDYWGQGTTVTVSSGGGGSGGGGSGGGGSGGGGSDIVMTQSPDSLAVSLGEKVTMNCKSSQSLLISGNQKNFLTWYQQKPGQPPKLLIYWASTRESGVPDRFSGSGSGTDFTLTISSLQAEDEAVYYCQNDFGFPFTFGQGTKLTAK
light: DVVLTQSPLSLPVTLGQPASISCRSSQSLENSNGNTFLNWFQQRPGQSPRLLIYKVSNRFSGVPDRFSGSGSGTDFTLKISRVEAEDVGVYYCLQVTHVPFTFGQGTKLEIKRTVAAPSVFIFPPSDEQLKSGTASVVCLLNNFYPREAKVQWKVDNALQSGNSQESVTEQDSKDSTYSLSSTLTLSKADYEKHKVYACEVTHQGLSSPVTKSFNRGEC
notes: Symmetric: full-length anti-CD40 antibody with an anti-PD-L1 scFv (56E5VH5VL4) at the C terminus of each heavy chain
B2: MBS307-11 (bispecific antibody, human IgG1, kappa, L234A L235A)
heavy 1: QVQLQESGPGLVKPSDTLSLTCAVSGYSITTNYYWNWIRQPPGKGLEWMGYIKYDGSNNYNPSLKNRITISVDTSKNQFSLKLSSVTAVDTAVYYCARLDYWGQGTLVTVSSASTKGPSVFPLAPSSKSTSGGTAALGCLVKDYFPEPVTVSWNSGALTSGVHTFPAVLQSSGLYSLSSVVTVPSSSLGTQTYICNVNHKPSNTKVDKKVEPKSCDKTHTCPPCPAPEAAGGPSVFLFPPKPKDTLMISRTPEVTCVVVDVSHEDPEVKFNWYVDGVEVHNAKTKPREEQYNSTYRVVSVLTVLHQDWLNGKEYKCKVSNKALPAPIEKTISKAKGQPREPQVYTLPPSREEMTKNQVSLWCLVKGFYPSDIAVEWESNGQPENNYKTTPPVLDSDGSFFLYSKLTVDKSRWQQGNVFSCSVMHEALHNHYTQKSLSLSPGGGGGQVQLLESGGGLVQPGGSLRLSCAASGFAFSDYAMTWVRQAPGKGLEWVSTINSGGQSSSYLDSVKGRFTSSRDNSKNTLYLQMNSLRAEDTAVYYCAKGVYMPWKAPKGQGTLVTVSS
heavy 2: QVQLQESGPGLVKPSDTLSLTCAVSGYSITTNYYWNWIRQPPGKGLEWMGYIKYDGSNNYNPSLKNRITISVDTSKNQFSLKLSSVTAVDTAVYYCARLDYWGQGTLVTVSSASTKGPSVFPLAPSSKSTSGGTAALGCLVKDYFPEPVTVSWNSGALTSGVHTFPAVLQSSGLYSLSSVVTVPSSSLGTQTYICNVNHKPSNTKVDKKVEPKSCDKTHTCPPCPAPEAAGGPSVFLFPPKPKDTLMISRTPEVTCVVVDVSHEDPEVKFNWYVDGVEVHNAKTKPREEQYNSTYRVVSVLTVLHQDWLNGKEYKCKVSNKALPAPIEKTISKAKGQPREPQVYTLPPSREEMTKNQVSLSCAVKGFYPSDIAVEWESNGQPENNYKTTPPVLDSDGSFFLVSKLTVDKSRWQQGNVFSCSVMHEALHNHYTQKSLSLSPGGGGGQVQLVQSGAEVKKPGASVKVSCKASGYTFTDYHVNWVRQAPGQGLEWIGWIFPGSGRTFYTDKFKGRVTMTVDTSTSTVYMELSSLRSEDTAVYYCATDYGTSGYGLVYWGQGTTVTVSSGGGGSGGGGSGGGGSGGGGSDIQMTQSPSSLSASVGDRVTITCKASDRINNWLAWYQQKPGKAPKLLISGATSLETGVPSRFSGSGSGTDFTLTISSLQPEDEATYYCQQYWNIPFTFGQGTKLTAK
light: B1 light
notes: Asymmetric: knob chain with the anti-PD-L1 nanobody, hole chain with the 3C2VH6VL5 scFv; also called MBS307-11-1 + MBS307-11-2

How the values were obtained:
human PD-L1-his protein = biological target: T1, human PD-L1-his protein (human, UniProt Q9NZQ7 19-238); test: SPR (BIAcore 8K), human PD-L1-his coupled to CM5 chip, antibody injected
T1 construct: extracellular domain; also called human PD-L1 (ECD)-his; human PD-L1 protein; not shown: his tag
T1 sequence (Q9NZQ7 19-238): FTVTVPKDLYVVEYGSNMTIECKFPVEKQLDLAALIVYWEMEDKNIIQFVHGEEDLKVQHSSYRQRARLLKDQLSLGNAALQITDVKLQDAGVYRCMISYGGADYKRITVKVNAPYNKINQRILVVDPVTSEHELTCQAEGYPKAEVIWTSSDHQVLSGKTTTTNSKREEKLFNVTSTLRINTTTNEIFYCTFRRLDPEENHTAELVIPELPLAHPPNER
Source text: (§1) Using BIAcore™ 8K instrument (GE Life Sciences, US), the binding affinity of the bi- or multi-specific antibodies to human CD40 and PD-L1 was quantitatively measured. Briefly, 100-200 response units (RU) of human CD40-his protein (Cat #:10774-1108H, Sino Biological, CN) or human PD-L1-his protein (Cat #:10084-H08H, Sino Biological, CN) were coupled to CM5 biosensor chips (Cat #:BR-1005-30, GE Life Sciences. USA). The un-reacted groups were then blocked with 1 M ethanolamine. Serially diluted antibodies at concentrations ranging from 0.3 μM to 10 μM were injected into the SPR running buffer (HBS-EP buffer, pH7.4, Cat #:BR-1006-69, GE Life Sciences, USA) at 30 μL/min. The binding affinity was calculated with the RUs of blank controls subtracted, and the association rate (kₐ) and dissociation rate (kd) were determined using the one-to-one Langmuir binding model (BIA Evaluation Software, GE Life Sciences, USA). The equilibrium dissociation constant KD was calculated as the kd/kₐ ratio.

[1] = biological target: monkey PD-L1 on HEK293A/monkey PD-L1 cells (monkey, UniProt Q9NZQ7 19-290 (human entry)); test: FACS on HEK293A/monkey PD-L1 cells
Chain of monkey PD-L1 on HEK293A/monkey PD-L1 cells (Q9NZQ7 other isoform, or with tags, fused parts or gaps limits assumed): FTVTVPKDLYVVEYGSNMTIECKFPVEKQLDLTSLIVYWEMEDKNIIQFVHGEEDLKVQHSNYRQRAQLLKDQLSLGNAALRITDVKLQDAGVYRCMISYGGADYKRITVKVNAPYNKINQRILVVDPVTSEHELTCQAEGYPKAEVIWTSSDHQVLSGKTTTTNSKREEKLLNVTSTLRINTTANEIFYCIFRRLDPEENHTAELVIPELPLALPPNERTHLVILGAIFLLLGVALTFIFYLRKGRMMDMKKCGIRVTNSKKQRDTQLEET
Method: (§2) The bispecific antibodies as prepared above were tested for their binding capability to cell surface human, monkey and mouse CD40 proteins by FACS, using the HEK293A cells prepared in Example 1 that stably expressed human, monkey or mouse CD40. Briefly, a 96-well plate was seeded with 10⁵ HEK293A cells in 50 μl PBS, and then added with 100 μl serially diluted anti-CD40 antibody 714VH2VL2 and the bispecific antibodies of the disclosure (starting concentration at 40 μg/ml). After incubation at 4° C. for 1 h, the plate was washed by PBST for 3 times. The plate was added with 1:500 diluted APC-goat anti-mouse IgG (Cat #:405308, BioLegen, USA), incubated at 4° for 1 h, washed with PBS for 3 times, and subjected to fluorescence measurement in a FACS machine (BD).
(§3) Following the protocol of Example 4, the bispecific antibodies were tested for their binding capability to cell surface human, or monkey PD-L1 proteins by FACS, using the HEK293A cells prepared in Example 1 that stably expressed human or monkey […].

[2] = biological target: T2, human PD-L1 on HEK293A/human PD-L1 cells (human, UniProt Q9NZQ7 19-290); test: FACS on HEK293A/human PD-L1 cells
T2 sequence (Q9NZQ7 19-290 limits assumed): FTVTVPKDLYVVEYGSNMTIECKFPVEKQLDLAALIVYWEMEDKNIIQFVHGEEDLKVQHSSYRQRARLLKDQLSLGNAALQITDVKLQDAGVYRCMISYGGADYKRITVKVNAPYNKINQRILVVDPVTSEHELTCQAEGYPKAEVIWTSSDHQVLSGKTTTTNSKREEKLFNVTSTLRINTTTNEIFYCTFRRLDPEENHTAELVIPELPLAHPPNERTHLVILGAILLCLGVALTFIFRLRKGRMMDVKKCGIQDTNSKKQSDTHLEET
Method: as §2
(§4) Following the protocols in Example 4 and Example 5, the bi- or multi-specific antibodies of the disclosure were tested for their binding capability to human PD-L1 and human CD40 proteins by FACS using the HEK293A cells prepared in Example 1 that stably expressed human PD-L1 or human CD40.

[3] = biological target: T2, human PD-L1 on HEK293A/human PD-L1 cells; test: FACS blocking assay on HEK293A/human PD-L1 cells; blocked ligand PD-1-Fc
Method: (§5) The bispecific antibodies were tested for their blocking activity on PD-1-PD-L1 binding by FACS using the HEK293A cells stably expressing human PD-L1 molecules as prepared in Example 1. Briefly, a 96-well plate was seeded with 10⁵ HEK293A/human PD-L1 cells in 100 μl cell culture medium, and then added with 50 μl serially diluted anti-PD-L1 antibody 56E5VH5VL4 or MBS307-3 molecules. After incubation at 4° C. for 1 h. the plate was washed with PBST for 3 times, added with 100 μl 200 μg/ml PD-1-Fc fusion proteins (Cat #:10377-10211, Sino Biological, CN), incubated at 4° C. for 1 h, washed with PBST for 3 times, and added with 1:500 diluted PE-goat anti-human IgG (Cat #:PAI-86078, Thermofisher, USA). After incubation at 4° C. for 1 h, the plate was washed with PBST for 3 times and measured for fluorescence using a FACS machine (BD).

[4] = biological target: T3, monkey CD40 on HEK293A/monkey CD40 cells (monkey, UniProt P25942 21-277 (human entry)); test: FACS on HEK293A/monkey CD40 cells
T3 chain: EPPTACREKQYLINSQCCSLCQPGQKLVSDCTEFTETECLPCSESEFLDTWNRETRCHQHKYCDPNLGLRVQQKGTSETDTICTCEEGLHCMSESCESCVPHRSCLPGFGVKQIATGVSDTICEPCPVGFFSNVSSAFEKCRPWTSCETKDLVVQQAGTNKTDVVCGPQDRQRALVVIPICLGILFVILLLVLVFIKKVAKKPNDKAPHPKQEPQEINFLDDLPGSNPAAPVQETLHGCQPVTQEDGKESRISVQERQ
Method: as §2

human CD40-his protein = biological target: T4, human CD40-his protein (human, UniProt P25942 21-193); test: SPR (BIAcore 8K), human CD40-his coupled to CM5 chip, antibody injected
T4 construct: Bought protein; also called human CD40 protein; CD40 molecules; not shown: his tag
Source text: as §1

[5] = biological target: T5, mouse CD40 on HEK293A cells (mouse, UniProt P27512 20-289); test: FACS on HEK293A cells expressing mouse CD40
T5 sequence: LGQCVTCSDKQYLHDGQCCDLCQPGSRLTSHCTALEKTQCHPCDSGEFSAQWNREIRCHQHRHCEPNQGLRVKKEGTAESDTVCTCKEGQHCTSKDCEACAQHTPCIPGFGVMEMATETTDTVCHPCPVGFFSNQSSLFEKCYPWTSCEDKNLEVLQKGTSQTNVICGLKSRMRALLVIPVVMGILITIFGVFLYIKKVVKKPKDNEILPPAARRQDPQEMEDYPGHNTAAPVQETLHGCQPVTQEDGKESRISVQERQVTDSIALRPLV
Method: as §2

[6] = biological target: T2, human PD-L1 on HEK293A/human PD-L1 cells; test: FACS blocking assay on HEK293A/human PD-L1 cells; blocked ligand PD-1-Fc; remark: listed apart in the source
Method: as §5
(§6) Following the protocol of Example 7, the bi- or multi-specific antibodies were tested for their capability to block PD-1-PD-L1 binding by FACS, using the HEK293A cells prepared in Example 1 that stably expressed human PD-L1 molecules.

[7] = biological target: T2, human PD-L1 on HEK293A/human PD-L1 cells; test: FACS on HEK293A/human PD-L1 cells; remark: listed apart in the source
Method: as §2, §3

[8] = biological target: T6, human CD40 on HEK293A/human CD40 cells (human, UniProt P25942 21-277); test: FACS on HEK293A/human CD40 cells
T6 construct: also called HEK-Blue/CD40 cells
Method: as §2

[9] = biological target: T6, human CD40 on HEK293A/human CD40 cells; test: cell-based or functional assay
[10] = biological target: T2, human PD-L1 on HEK293A/human PD-L1 cells; test: FACS on HEK293A/human PD-L1 cells; remark: listed apart in the source
Method: as §2, §4

[11] = biological target: T6, human CD40 on HEK293A/human CD40 cells; test: FACS on HEK293A/human CD40 cells; remark: listed apart in the source
Method: as §2, §4

[12] = biological target: T2, human PD-L1 on HEK293A/human PD-L1 cells; test: FACS blocking assay on HEK293A/human PD-L1 cells; blocked ligand PD-1-Fc; remark: listed apart in the source
Method: as §5, §6

[13] = biological target: T6, human CD40 on HEK293A/human CD40 cells; test: cell-based or functional assay; remark: listed apart in the source

Row | Binder | Kd (human PD-L1-his protein) [nM] | EC50 (read off the curve) [1] [ng/mL] | EC50 (read off the curve) [2] [ng/mL] | IC50 (read off the curve) [3] [ng/mL] | EC50 (read off the curve) [4] [ng/mL] | Kd (human CD40-his protein) [nM] | binding result [5] | IC50 (read off the curve) [6] [ng/mL] | EC50 (read off the curve) [7] [ng/mL] | EC50 (read off the curve) [8] [ng/mL] | EC50 (read off the curve); HEK-Blue/CD40 reporter, OD630, plate coated with human PD-L1-his [9] [ng/mL] | EC50 (read off the curve) [10] [ng/mL] | EC50 (read off the curve) [11] [ng/mL] | IC50 (read off the curve) [12] [ng/mL] | EC50 (read off the curve); HEK-Blue/CD40 reporter, OD630, plate coated with human PD-L1-his [13] [ng/mL]
1 | B1 | 0.321 | ~90 | ~100 | ~100 | ~100 | 1.42 | no binding (tested: starting concentration at 40 µg/ml) | ~80 | ~100 | ~100 | ~100 | ~200 | ~100 |  | 
2 | B2 | 0.069 |  |  |  |  | 4.37 |  |  |  |  |  |  |  | ~10 | ~10
